In the supplement of paper PMC10567573:

B1: RSPH3 (parent)
chain: FIPAKTGKDVATQILEGELFDFDL
B2: POMT2 (parent)
chain: VKYNSCADRPFSAPWWFWLSLTGV
B3: WDR88 (parent)
chain: LLTITKAHSNAISNCCFTFSGHFL

Variants of: B1
Assay: protein stability index of a GFP-peptide fusion (GPS, HEK-293T) (PSI 1-6); higher = more stable
Settings: c terminus: a fixed tail appended
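Note: lentivirally expressed fusions sorted by FACS into six bins by GFP to DsRed ratio, PSI derived from sequencing read proportions per bin multiplied by bin number.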

Variant	protein stability index
D21W	3.1
D21L	3
D21C	2.71
D21I	2.72
D21Q	1.53
D21E	1.49
D21Y	2.78
D21G	2.24
D21S	2.54
D21R	1.8
D21T	3.06
D21A	2.33
D21P	2.47
D21V	1.66
D21M	2.98
D21H	1.79
D21N	1.53
D21K	1.96
D21F	2.45
G17Y	2.06
G17A	2.14
G17S	1.56
G17M	1.71
G17P	1.37
G17W	1.95

Variant	protein stability index
G17K	1.93
G17D	1.75
G17L	1.48
G17V	2.75
G17N	1.32
G17C	2.54
G17Q	2.26
G17R	2.15
G17I	2.31
G17E	3
G17F	2.72
G17T	2.11
G17H	2.34
E16I	2.24
E16R	2.46
E16Y	2.01
E16M	3.38
E16H	1.32
E16L	1.73
E16V	2.04
E16C	2.32
E16F	3.82
E16P	1.8
E16W	2.07
E16K	2.11

Variant	protein stability index
E16Q	1.7
E16A	1.46
E16D	1.86
E16N	2.34
E16S	2.76
E16G	2.34
E16T	1.63
L24T	2.39
L24N	2.43
L24W	3.71
L24E	2.78
L24P	2.47
L24V	1.85
L24I	2
L24A	2.67
L24S	2.36
L24F	1.95
L24D	3.04
L24Y	1.75
L24C	2.36
L24R	2.31
L24K	2.79
L24M	2.23
L24G	2.75
L24Q	2.7

Variant	protein stability index
L24H	2.68
L19H	2.01
L19I	2.05
L19D	2.59
L19F	1.7
L19N	1.93
L19Q	1.66
L19C	1.83
L19T	2.28
L19A	2.2
L19P	1.98
L19M	1.83
L19E	2.2
L19W	1.96
L19K	2.21
L19V	1.74
L19G	2.31
L19S	1.98
L19R	1.6
L19Y	2.02
E18W	1.95
E18V	2.46
E18T	2.62
E18D	2.04
E18L	2.42

Variant	protein stability index
E18R	2.46
E18S	2
E18N	2.38
E18G	1.71
E18I	2.6
E18Q	2.06
E18P	1.87
E18A	1.74
E18F	3.44
E18Y	1.59
E18K	2.2
E18C	2.17
E18M	2.73
E18H	2
I14V	2.2
I14Y	2.47
I14W	2.71
I14S	1.41
I14T	2.79
D23Y	2.24
D23G	2.02
D23I	1.24
D23K	2.12
D23T	2.24
D23N	1.84

Variant	protein stability index
D23H	1.87
D23R	1.42
D23P	2.08
D23V	1.59
D23C	2.08
D23W	2.51
D23Q	1.99
D23E	1.89
D23L	1.98
D23M	1.42
D23S	2
D23A	2.12
D23F	1.34
F22M	2.54
F22T	2.67
F22H	2.56
F22W	1.91
F22S	2.86
F22C	1.84
F22G	2.81
F22P	1.82
F22D	3.7
F22V	2.21
F22N	2.87
F22L	1.98

Variant	protein stability index
F22I	1.68
F22Q	2.84
F22E	3.2
F22A	2.31
F22Y	2.12
F22K	2.74
F22R	2.42
F20W	2.26
F20C	2.16
F20P	2.37
F20S	2.52
F20N	2.76
F20D	2.92
F20R	1.86
F20V	2.71
F20Y	2.01
F20I	1.72
F20Q	2.44
F20K	2.08
F20G	1.84
F20A	2.47
F20M	1.88
F20H	1.59
F20E	2.6
F20L	2.25

Variant	protein stability index
F20T	2.13
L15R	2.75
L15Y	1.76
L15A	1.74
L15T	1.66
L15K	2.07
L15M	2.03
L15P	2.02
L15Q	1.96
L15I	1.87
L15V	1.94
L15W	2.75
L15S	2.03
L15E	2.79
L15D	2.58
L15G	1.89
L15C	1.85
L15F	2.18
L15H	2.12
L15N	2

Variants of: B2
Assay: as above
Settings: c terminus: a fixed tail appended

Variant	protein stability index
S20F	1.04
S20M	3.17
S20I	2.08
S20C	2.22
S20Y	2.25
S20L	1.47
S20H	2.9
R9G	3.51
R9W	3.34
R9A	2.8
R9L	2
R9N	3.39
R9F	3.16
R9I	3.57
P10M	1.94
P10E	1.63
P10L	2.5
P10K	4.18
P10A	2.24
D8I	3.67
D8W	1.26
D8L	3
D8P	3.01
D8T	3.21
D8S	2.54
D8R	3.03

Variant	protein stability index
D8Y	2.29
D8G	2.4
W18A	2.22
W18T	3.52
W18C	2.54
W18Y	2.04
W18G	3.3
W18S	3.44
W18V	2.56
F17W	1.33
F17T	3.3
F17V	2.16
F17K	2.65
W16V	2.01
W16T	3.23
W16I	3.2
W16Q	1.78
W16P	2.08
W16L	1.8
W16D	3.79
T22I	1.56
T22K	2.12
T22V	3.31
T22N	1.29
T22A	1.62
S5P	2.39

Variant	protein stability index
S5A	4.07
S5D	4.19
V24I	2.98
V24T	1.5
V24Y	2.1
V24N	1.81
V24R	1.87
V24E	1
V24A	2.85
V24L	5.16
V24M	2.61
L21K	1.12
L21P	2.68
L21A	3.62
L21N	2.88
S12I	3.2
S12F	2.65
S12A	3.27
A13R	1
A13H	1.18
A13E	2.18
A13G	2.11
A13S	2.06
Y3D	2.19
Y3P	2.55
Y3K	2.11

Variant	protein stability index
Y3Q	1.41
L19I	1.76
L19E	1.65
L19T	1.64
L19F	2.95
L19N	2.79
A7Y	1.39
N4T	3.25
N4E	3.12
N4V	3.46
W15E	3.49
W15H	2.54
W15K	3.58
V1A	3.3
V1L	1.66
V1R	1.98
V1C	2.99
V1H	1.1
F11S	1
F11G	2.84
P14C	2.27
P14V	2.71
P14Y	1.21
P14R	3.92
P14G	2.4
P14A	2.21

Variant	protein stability index
P14F	1.35
G23F	2.65
G23E	5.35
G23S	1.47
G23N	1.69
G23W	1.21
G23A	1.77
G23I	2.22
G23T	2.04
G23Q	4.6
G23C	1.24
G23V	2.98
G23M	1.55
C6W	1
C6L	2.11
C6T	1.92
C6G	1.73
C6I	2.36
C6N	1.02
C6D	2.84
C6S	2.14
K2F	2.75
K2T	1.61
K2Y	3.34
K2N	2.4
K2R	2.2

Variants of: B3
Assay: as above
Settings: c terminus: a fixed tail appended

Variant	protein stability index
H8R	3.29
C16F	3.35
L2F	2.44
T3W	2.29
T5K	2.37
H22R	1.27
T18S	2.58
L1C	2.81
L24Y	3.97
